Experimental data as given in PMC6023938, “Global pairwise RNA interaction landscapes reveal core features of protein recognition”.

Molecular target: T1, TUT7 RNA-binding region (Homo sapiens, UniProt Q5VYS8 1362-1452)
T1 sequence: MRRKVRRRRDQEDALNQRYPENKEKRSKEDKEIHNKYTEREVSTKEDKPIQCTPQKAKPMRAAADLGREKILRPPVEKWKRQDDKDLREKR
Test: fluorescence polarization; FP: 45 mM Tris-HCl pH 8.0, 90 mM NaCl, 0.2% Tween-20, 22 C, 60 min, 30 ul
Settings: protein: recombinant; tags: GST fusion (expressed in BL21 codon plus); label: 5' Cy5

**Q.** Does GCAGUCUUAACGCUGCCUUA (ssRNA) [top scoring Hamiltonian sequence for TUT7] bind?
**A.** Result: binds
